Test results: paper PMC13598245 (2026)
Where two headings read alike, the source gives them in different places. Square brackets hold non-standard residues; d marks the D form. Ends that are not written are not given here. * marks the point of attachment. FITC = O=C1OC2(c3ccc(O)cc3Oc3cc(O)ccc32)c2ccc(NC(=S)*)cc21; pS = N[C@@H](COP(=O)(O)O)C(=O)O

Key:
Assay in all cases: FP
[1] = target: T1, 14-3-3η (purified, recombinant) (UniProt Q04917 1-246)
T1 chain: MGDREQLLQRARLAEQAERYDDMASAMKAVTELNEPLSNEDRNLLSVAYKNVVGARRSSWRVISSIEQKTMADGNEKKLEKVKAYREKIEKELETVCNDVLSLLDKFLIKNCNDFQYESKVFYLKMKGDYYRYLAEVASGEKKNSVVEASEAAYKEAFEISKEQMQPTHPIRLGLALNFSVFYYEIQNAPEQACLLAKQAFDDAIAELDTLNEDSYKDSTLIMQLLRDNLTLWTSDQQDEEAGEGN

[2] = target: T2, 14-3-3θ (purified, recombinant) (UniProt P27348 1-245)
T2 chain: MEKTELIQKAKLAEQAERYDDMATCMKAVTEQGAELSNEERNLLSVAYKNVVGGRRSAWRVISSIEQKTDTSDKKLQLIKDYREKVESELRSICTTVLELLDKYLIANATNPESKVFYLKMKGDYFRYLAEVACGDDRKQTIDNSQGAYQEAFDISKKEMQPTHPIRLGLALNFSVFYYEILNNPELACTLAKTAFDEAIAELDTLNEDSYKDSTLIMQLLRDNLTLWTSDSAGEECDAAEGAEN

[3] = target: T1, 14-3-3η (purified, recombinant)
[4] = target: T2, 14-3-3θ (purified, recombinant)

B1: Tau^209-221 p-S214 (peptide)
peptide: {FITC}-RSRTP[pS]LPTPPTR
**Q.** What does the source list for B1?
**A.** Kd [1]: 21 µM; Kd [2]: 90.9 µM

B2: MAST1^156-168 p-S161 (peptide)
peptide: {FITC}-RPRSR[pS]LSPGRSP
**Q.** Which Kd [3] does the source give for B2 here?
**A.** 3.6 µM

**Q.** And the Kd [4]?
**A.** 10.7 µM

B3: MAST1^85-97 p-S90 (peptide)
peptide: {FITC}-DGRRW[pS]LASLPSS
**Q.** Which results are given for B3?
**A.** Kd [3]: 12.3 µM; Kd [4]: 23.7 µM
